T1: human FcγRIIA 131H on blood cells of 131H/H donors (human, UniProt P12318 34-317)
T1 sequence (looked up): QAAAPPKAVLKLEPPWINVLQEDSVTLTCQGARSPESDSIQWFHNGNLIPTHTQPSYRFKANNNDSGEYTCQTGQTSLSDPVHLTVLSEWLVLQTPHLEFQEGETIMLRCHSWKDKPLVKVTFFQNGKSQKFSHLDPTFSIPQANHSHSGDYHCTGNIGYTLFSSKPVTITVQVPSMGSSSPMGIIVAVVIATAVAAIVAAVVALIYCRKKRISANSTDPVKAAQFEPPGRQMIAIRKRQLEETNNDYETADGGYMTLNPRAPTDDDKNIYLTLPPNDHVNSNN

T2: human FcγRIIA 131R on blood cells of 131R/R donors (human, UniProt P12318 34-317)
T2 sequence: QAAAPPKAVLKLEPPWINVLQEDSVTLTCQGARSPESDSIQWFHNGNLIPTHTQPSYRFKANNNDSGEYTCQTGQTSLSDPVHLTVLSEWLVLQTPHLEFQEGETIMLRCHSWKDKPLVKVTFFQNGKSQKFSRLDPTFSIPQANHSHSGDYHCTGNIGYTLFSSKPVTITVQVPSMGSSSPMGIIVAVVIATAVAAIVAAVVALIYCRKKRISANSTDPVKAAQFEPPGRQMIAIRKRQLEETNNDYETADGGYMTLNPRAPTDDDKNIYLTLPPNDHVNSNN


Legend:
Test in all cases: cell-based or functional assay
[1] = molecular target: T1, human FcγRIIA 131H on blood cells of …
[2] = molecular target: T2, human FcγRIIA 131R on blood cells of …
[3] = molecular target: cynomolgus monkey FcγRIIA on blood cells (cynomolgus monkey)

| IC50 of the loss of surface FcγRIIA (M.F.I of IV.3-Alexa 647) on monocytes, whole blood, 2 h at 37 °C [1] | IC50 of the loss of surface FcγRIIA (M.F.I of IV.3-Alexa 647) on monocytes, whole blood, 2 h at 37 °C [2] | IC50 of the loss of surface FcγRIIA (M.F.I of IV.3-Alexa 647) on cynomolgus monocytes, whole blood, 2 h at 37 °C [3] | Binder |
| --- | --- | --- | --- |
| 0.241 nM | 0.307 nM | 10.5 nM | CamIV3 (antibody, V domains shown) VH: QVQLVQSGAEVKKPGASVKVSCKASGYTFTNYGMNWVRQAPGQRLEWMGWLNTYTGESIYPDDFKGRVTITRDTSASTAYMELSSLRSEDTAVYYCARGDYGYDDPLDYWGQGTLVTVSS VL: DIVMTQSPLSLPVTPGEPASISCRSSKSLLHTLGNTYLHWFLQKPGQSPQLLIYRMSVLASGVPDRFSGSGSGTDFTLKISRVEAEDVGVYYCMQHLEYPLTFGQGTKLEIK |
| 0.044 nM | 0.0431 nM | 3.78 nM | 32LO0356 (antibody, V domains shown) VH: QVQLVQSGAEVKKPGASVKVSCKASGYTFTNYGMNWVRQAPGQRLEWMGWLNTYTGESYYPDDFKGRVTITRDTSASTAYMELSSLRSEDTAVYYCARGDYGYDDPLDYWGQGTLVTVSS VL: DIVMTQSPLSLPVTPGEPASISCRSSKSLLHTNFNTYLHWFLQKPGQSPQLLIYRMSVLASGVPDRFSGSGSGTDFTLKISRVEAEDVGVYYCMQHLEYPLTFGQGTKLEIK |
| 0.0524 nM | 0.0559 nM | 16.4 nM | 32LO0351 (antibody, V domains shown) VH: QVQLVQSGAEVKKPGASVKVSCKASGYTFTNYGMNWVRQAPGQRLEWMGWLNTYTGESYYPDDFKGRVTITRDTSASTAYMELSSLRSEDTAVYYCARGDYGYDDPLDYWGQGTLVTVSS VL: DIVMTQSPLSLPVTPGEPASISCRSSKSLLHTYGNTYLHWFLQKPGQSPQLLIYRMSVLASGVPDRFSGSGSGTDFTLKISRVEAEDVGVYYCMQHLEYPLTFGQGTKLEIK |
